Laboratory results: CN116744966A (WISTAR INST; WEINER DAVID; MUTHUMANI KARTHIK; PARZACCHI …, dated 2023)

B1: WCoVA7 (antibody, V domains shown)
VH: EVKLLESGGGLVQPGGSLKLSCAASGFDFSRYWMSWVRQAPGKGLEWIGEINPDSSTINYTPSLKDKFIISRDNAKNTLYLQMSKVRSEDTALYYCARIYYGSPGAMDYWGQGTSVTVSS
VL: SIVMTQTPKFLLVSAGDRVTITCKASQSVSNDVAWYQQKPGQSPKLLIYYASNRYTGVPDRFTGSGYGTDFTFTISTVQAEDLAVYFCQQDYFSPYTFGGGTKLEIK
B2: WCoVA9 (antibody, V domains shown)
VH: EVQLQQSGAELVKPGASVKLSCTASGFNIKDTYMHWVKQRPEQGLEWIGRIDPANGNTKYDPKFQAKATITANTSSNTAYLHLSSLTSEDTAVYYCAPYYDYVGAMDYWGQGTSVTVSS
VL: DIQMTQSPASQSASLGESVTITCLASQTIGTWLAWYQQKPGKSPQLLIYAATSLADGVPSRFSGSGSGTKFSFKISSLQAEDFVSYYCQQLYNTPLTFGGGTKLEIK

Tests used:
[1] = molecular target: SARS-CoV-2 spike protein (wild type) on pseudovirus (SARS-CoV-2, UniProt P0DTC2 14-1273); test: cell-based or functional assay
[2] = molecular target: recombinant SARS-CoV-2-RBD (Sino Biological) (SARS-CoV-2, UniProt P0DTC2 319-541)

Row | Binder | IC50, pseudovirus neutralisation (CHO-ACE2 cells, luciferase) [1] [ng/mL] | Kd [2] [nM]
1 | B1 | 2.6 | –
2 | B2 | 4.9 | < 1
